Source: publication PMC5041093, “Acidic Residues Control the Dimerization of the N-terminal Domain of Black Widow Spiders’ Major Ampullate Spidroin 1” (Scientific Reports, 2016)

B1: amino-terminal domain of Latrodectus hesperus major ampullate spidroin 1, wildtype (domain or fragment)
chain: QANTPWSSKANADAFINSFISAASNTGSFSQDQMEDMSLIGNTLMAAMDNMGGRITPSKLQALDMAFASSVAEIAASEGGDLGVTTNAIADALTSAFYQTTGVVNSRFISEIRSLIGMFAQASANDVYASAGS
notes: non-repetitive amino-terminal domain (NRN1) of major ampullate spidroin 1 (MaSp1), Latrodectus hesperus; also called wtNRN1_(L.h.); NRN1_(L.h.); source: E. coli BL21 (DE3), purified (nickel-NTA, SEC)

How the values were obtained:
[1] = molecular target: NRN1_(L.h.) variant E114Q (Latrodectus hesperus); assay: SEC-MALS; Superdex 200 10/300 GL, 20 mM sodium phosphate pH 7.2 without NaCl, 71.2 μM protein injected; monomer to dimer
[2] = molecular target: NRN1_(L.h.) variant E114Q (Latrodectus hesperus); assay: NMR 15N relaxation (T1, T2; rotational correlation time); 15N-labelled E114Q, 22 mM sodium phosphate pH 7.2 without salt, 10% D2O; molecular weight estimated from the rotational correlation time
[3] = molecular target: the molecule itself; assay: SEC-MALS; Superdex 200 10/300 GL, 20 mM sodium phosphate pH 6.0 without NaCl, 71.2 μM protein injected; monomer to dimer

Molecule | stoichiometry N [1] | stoichiometry N [2] | stoichiometry N [3]
NRN1_(L.h.) variant E114Q (domain or fragment) | 2 | 2 | 
B1 |  |  | 2
